Residue numbers refer to the chain shown, from its start. Blank lines part the entries; values can stand above or below the binder they belong to.
Experiments:
human MAGEB5 = target: T1, human MAGEB5 (human, UniProt Q9BZ81 1-275); experiment: IHC, FFPE CHO cells transfected with human MAGEB5
T1 construct: whole, on cells; Transfected into CHO cells with Myc/DDK tags; also called CHO-MAGEB5+ cells
T1 sequence (looked up): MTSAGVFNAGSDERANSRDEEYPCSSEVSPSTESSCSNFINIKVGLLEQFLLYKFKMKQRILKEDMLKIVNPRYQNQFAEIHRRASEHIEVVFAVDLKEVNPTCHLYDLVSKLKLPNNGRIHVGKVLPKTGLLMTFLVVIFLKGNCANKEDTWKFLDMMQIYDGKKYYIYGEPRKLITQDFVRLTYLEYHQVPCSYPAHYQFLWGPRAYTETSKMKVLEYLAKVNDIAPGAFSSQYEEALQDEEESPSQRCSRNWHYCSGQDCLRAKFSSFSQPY
Description: (§1) Negative control cells included parental Chinese hamster ovary (CHO) cells, CHO cells stably transfected with mCherry Vector Control (minus Myc/DDK tags), CHO cells stably transfected with mCherry-human DCAF4L2 (plus Myc/DDK tags). The cross-reactivity control cells included CHO cells transfected with mCherry Vector Control (plus Myc/DDK tags) with one of the human MAGE-B or MAGE-A family members (MAGEA1, MAGEA2, MAGEA3, MAGEA4, MAGEA5, MAGEA6, MAGEA8, MAGEA9, MAGEA11, MAGEA12, MAGEB1, MAGEB3, MAGEB4, MAGEB5, MAGEB6, MAGEB10, MAGEB16, MAGEB17, MAGEB18). Positive control cell lines included CHO cells transfected with mCherry Vector (plus Myc/DDK tags) with human MAGE-B2 or CHO cells transfected with mCherry Vector (open reading frame (ORF); minus Myc/DDK tags) with human MAGEB2, and thirteen human cancer cell lines with known endogenous RNA expression level of MAGEB2 (U266B1, T98G, KMM-1, U20S, CFPAC-1, SCaBER, UACC-257, CFPAC-1, VMRC-LCD, NCI-H1703, UM-UC-3, NCI-H1395, NCIH82).
(§2) FFPE samples were sectioned at 4 μm and mounted on positive charged glass slides. After mounting, paraffin sections were air-dried at room temperature. FFPE TMA samples were received as freshly sectioned and mounted on glass slides. The fully automated IHC assay was performed on a Discovery Ultra Stainer (Ventana Medical Systems, Tucson, AZ) using Ventana Anti-Rabbit HQ (cat #760-4815), Ventana Anti-HQ HRP (cat #760-4820), and Ventana Antibody Diluent with Casein (cat #760-219) (Ventana Medical Systems, Tucson, AZ). The slides were baked on the Discovery Ultra Stainer at 60° C. for 8 minutes, de-paraffinized with Ventana Discovery wash (cat #950-510) for 3 cycles (8 minutes each) at 69° C., and underwent cell conditioning (target retrieval) at 95° C. for 16 minutes (for cell arrays) or 32 minutes (tissues or TMAs) in CC1 buffer (cat #950-500). Following this, slides were incubated with Background Sniper (cat #BS966M, Biocare Medical, Pacheco, CA) in a Ventana Option Prep kit (cat #771-751) for 28 minutes, incubated with CM inhibitor (a part of the Ventana DAB kit cat #760-159) for 12 minutes, and incubated for 1 h at RT with MAGE-B2 antibody diluted with Ventana diluent with Casein in a Ventana Prep kit (cat #770-001) (working concentration at 0.1 μg/ml for cell pellet, or 1-5 ug/ml for tissues) or with a matched concentration of isotype control Rabbit IgG1 antibody.

human MAGEA4 = target: T2, human MAGEA4 (human, UniProt P43358 1-317); experiment: IHC, FFPE CHO cells transfected with human MAGEA4
T2 construct: whole, on cells; Transfected into CHO cells with Myc/DDK tags
T2 sequence (looked up): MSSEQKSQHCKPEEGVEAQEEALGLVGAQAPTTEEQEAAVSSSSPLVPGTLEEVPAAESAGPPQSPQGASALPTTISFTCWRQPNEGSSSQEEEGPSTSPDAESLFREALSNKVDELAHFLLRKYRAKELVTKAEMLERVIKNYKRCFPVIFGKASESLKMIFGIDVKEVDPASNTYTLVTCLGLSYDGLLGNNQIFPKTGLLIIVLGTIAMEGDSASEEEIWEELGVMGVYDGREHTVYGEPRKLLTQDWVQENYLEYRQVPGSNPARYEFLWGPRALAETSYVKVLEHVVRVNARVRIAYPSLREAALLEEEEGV
Description: as §1, §2

human MAGEA8 = target: T3, human MAGEA8 (human, UniProt P43361 1-318); experiment: IHC, FFPE CHO cells transfected with human MAGEA8
T3 construct: whole, on cells; FFPE cell pellets
T3 sequence (looked up): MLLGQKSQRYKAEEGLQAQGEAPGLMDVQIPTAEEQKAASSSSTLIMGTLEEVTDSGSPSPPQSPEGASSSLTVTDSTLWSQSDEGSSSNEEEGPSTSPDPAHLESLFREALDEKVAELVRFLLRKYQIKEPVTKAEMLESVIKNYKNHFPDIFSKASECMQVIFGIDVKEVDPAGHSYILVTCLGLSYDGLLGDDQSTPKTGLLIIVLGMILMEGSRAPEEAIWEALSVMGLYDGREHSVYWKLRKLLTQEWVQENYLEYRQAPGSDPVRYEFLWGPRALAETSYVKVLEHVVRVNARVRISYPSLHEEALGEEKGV
Description: as §1, §2

- binding result (human MAGEB5): no binding (tested: 0.1 µg/ml)
- binding result (human MAGEA4): no binding (tested: 0.1 µg/ml)
- binding result (human MAGEA8): no binding (tested: 0.1 µg/ml)
B1: 1C3 (antibody, V domains shown)
VH: QSLEESGGGLVQPEGSLTLTCTAFGVTLTNYYICWVRQAPGKGLEWVGCIDNANGRTYYASWAKGRFTISKTSSTTGTLQMTSLTAADTATYFCARSLATPLWGPGTLVTVSS
VL: DIVMTQTPSSVEAAVGGTVTIKCQASQNISSYLAWYQQKPGQPPKLLIYRASTLASGVPSRFKGSGSGTQFTLTISDLECADAATYYCQSYDDSRSSNFFYAFGGGTEVVVKG
notes: also called MAGE-B2 (IC3); anti-MAGEB2 antibody 1C3

- binding result (human MAGEB5): no binding (tested: 0.1 µg/ml)
- binding result (human MAGEA4): no binding (tested: 0.1 µg/ml)
- binding result (human MAGEA8): no binding (tested: 0.1 µg/ml)
B2: 4G17 (antibody, IgG1, V domains shown)
VH: B1 VH with F24S, T29S, V47I, A53V
VL: DIVMTQTPASVEAAVGGTVTIKCQASQNIDSYLAWYQQKPGQPPKLLIYRASTLASGVPSRFKGSGSGTEFTLTISDLECADAATYYCQSYDDSRSSSFFYGFGGGTEVVVK
notes: Rabbit monoclonal IgG1; Tested as supernatant and as small batch purified antibody; also called MAGE-B2 (4G17); anti-MAGEB2 antibody 4G17

- binding result (human MAGEB5): no binding (tested: 0.1 µg/ml)
- binding result (human MAGEA4): no binding (tested: 0.1 µg/ml)
- binding result (human MAGEA8): no binding (tested: 0.1 µg/ml)
B3: 1J15 (antibody, IgG1, V domains shown)
VH: B1 VH with V26F, T29N, V47I, G48A, G77V, A99S
VL: B2 VL with N28S, D30S, A34S, K63R, E70Q, R95S, S96D, S97N, S98N, K112R
notes: Rabbit monoclonal IgG1; Tested as supernatant and as small batch purified antibody; also called MAGE-B2 (IJ15); anti-MAGEB2 antibody 1J15

- binding result (human MAGEB5): no binding (tested: 0.1 µg/ml)
- binding result (human MAGEA4): no binding (tested: 0.1 µg/ml)
- binding result (human MAGEA8): no binding (tested: 0.1 µg/ml)
B4: 1I14 (antibody, V domains shown)
VH: QSVEESGGRLVTPGTPLTLTCTISGFSLSSYAMSWVRQAPGKGLEWIGSIGGGGSAVYASWAKGRFTISKTSTTVDLRITSPTTEDTAMYFCGRGFYSIDLWGPGTLVTVSS
VL: DVVMTQTPASVEATVGGTVTIKCQSSQSVYDNNALAWYQQNAGQRPRLLIYGASTLASGVPSRFSASGSGTEFTLTISDLECADAATYYCQCTYYVSSYQNDFGGGTEVVVKG
notes: also called MAGE-B2 (1i14)

From patent publication US20250282887A1 (Amgen, published 2025)
